Where “and” joins values, the source holds several entries; their conditions need not be identical. Equal values may be shown once.
B1: Gamma-crystallin S wild type, P06504 (protein)
chain: MSKAGTKITFFEDKNFQGRHYDSDCDCADFHMYLSRCNSIRVEGGTWAVYERPNFAGYMYILPRGEYPEYQHWMGLNDRLSSCRAVHLSSGGQYKLQIFEKGDFNGQMHETTEDCPSIMEQFHMREVHSCKVLEGAWIFYELPNYRGRQYLLDKKEYRKPVDWGAASPAVQSFRRIVE
B2: Gamma-crystallin S wild type, P22914 (protein)
chain: MSKTGTKITFYEDKNFQGRRYDCDCDCADFHTYLSRCNSIKVEGGTWAVYERPNFAGYMYILPQGEYPEYQRWMGLNDRLSSCRAVHLPSGGQYKIQIFEKGDFSGQMYETTEDCPSIMEQFHMREIHSCKVLEGVWIFYELPNYRGRQYLLDKKEYRKPIDWGAASPAVQSFRRIVE

Conditions: pH 7, Sodium phosphate 10 mM, whole UniProt chain shown
[1] = Homo sapiens, 20 °C, Thermal, DSC

Protein	denaturant midpoint (higher = more stable) (Bos taurus, 20 °C, GdnHCl, Fluorescence)	denaturant midpoint (higher = more stable) (Bos taurus, 20 °C, Urea, Fluorescence)	denaturant midpoint (higher = more stable) (Homo sapiens, 20 °C, GdnHCl, CD) [M]	denaturant midpoint (higher = more stable) (Homo sapiens, 20 °C, GdnHCl, Fluorescence)	heat capacity change of unfolding [1]	unfolding free energy [1]	denaturant midpoint (higher = more stable) (Homo sapiens, 20 °C, Urea, CD) [M]	denaturant midpoint (higher = more stable) (Homo sapiens, 20 °C, Urea, Fluorescence)	heat capacity change of unfolding (Homo sapiens, Thermal, DSC)	unfolding enthalpy (calorimetric) (Homo sapiens, Thermal, DSC)
B1	2.1 M and 1.8 M	7 M and 6.6 M								
B2			1.9	2.6 M and 2.5 M	1.79 kcal/mol/K and 0.84 kcal/mol/K and 1.08 kcal/mol/K	20.1 kcal/mol and 10 kcal/mol and 11.5 kcal/mol	7	8 M and 7.6 M	1.79 kcal/mol/K and 0.84 kcal/mol/K and 1.08 kcal/mol/K	179 kcal/mol and 90.8 kcal/mol and 103 kcal/mol
